Legend:
[1] = rat, in vivo, iv
Description: To determine the elimination rate in the presence of elevated glucose levels, one hour before the start of the experiment one rat cannula was connected to a syringe infusion pump containing a sterile 50% w/v glucose solution. The pump infusion rate was adjusted by the experimenter to ensure that the blood glucose levels in the animal remained above 300 mg/dL at all times during the experiment. Blood glucose was measured using commercially available test strips (Precision Xtra, Abbott Laboratories, Abbott Park, Ill.). […]
(§1) Throughout the experiment, blood glucose was measured using commercially available test strips (Precision Xtra, Abbott Laboratories, Abbott Park, Ill.). Blood from each timepoint was centrifuged at 4 C to collect the serum, and serum insulin or serum conjugate concentrations were subsequently measured with a commercially available ELISA kit (Iso-Insulin ELISA, Mercodia, Uppsala, Sweden). […]
as §1

[2] = Glucose-responsive PK under constant i.v. infusion with i.p. glucose injection at 240 min; parameters: species or system Sprague-Dawley rats; settings: rat, in vivo, iv
Description: In this example, the i.v. elimination rate experiment described in Example 30 was modified from a single i.v. bolus of 0.4 mg conjugate/kg body weight to a continuous i.v. infusion.
A blood sample was taken at t=0 min, after which the constant i.v. infusion was initiated.
Throughout the experiments, blood glucose was measured using commercially available test strips (Precision Xtra, Abbott Laboratories, Abbott Park, Ill.). Blood from each timepoint was centrifuged at 4 C to collect the serum, and serum insulin or serum conjugate concentrations were subsequently measured with a commercially available ELISA kit (Iso-Insulin ELISA, Mercodia, Uppsala, Sweden).

lectins = test: Relative lectin binding affinities of saccharide ligands (FIG. 1); settings: four sugars shown in FIG. 1

Compound	effect of sugars on elimination rate, in words [1]	hypoglycemia prior to glucose injection [2]	lectin binding affinity relative to the other sugars (lectins)
RHI: recombinant human insulin (MW=5808 Da, Sigma Aldrich), unconjugated control	not affected in the presence of sugars	causes significant hypoglycemia prior to glucose injection	–
NCCO[C@H]1O[C@H](CO[C@H]2O[C@H](CO)[C@@H](O)[C@H](O)[C@@H]2O)[C@@H](O)[C@H](O[C@H]2O[C@H](CO)[C@@H](O)[C@H](O)[C@@H]2O)[C@@H]1O [AETM, Man (α-1,3)-Man(α-1.6)-α-1-aminoethylmannopyranoside]	–	–	highest affinity of the four sugars shown
